From the DeepSol protein solubility set

Test: soluble on expression in E. coli; label from the status in PepcDB or PDB records

Sequence | soluble on expression in E. coli
MPLYKLTYFDARGYAEPARILFHLAGVPFEDNRLTHGDGSWEKIKDKTPFGQVPVLSVDGFDIPQSAAIIRYLANKFGYAGKTPEEQAWADAIVDQFKDFMGAFRQLIMAQRSGKPAEEIAKISSEVAIPARDSYFKILNGLLEKSKSGFLVGDGLTFADIVVVENLTTLEKNQFFTASEHPKLSALREKVHAVPAIKTWVATRPDTQF | not soluble
MPNLPQKAQQRQPQEHKSRHKATDDTEAPKQQQQQQQQQQSFDVATNANGSSLPASRVKNPEEPGGKSPLVPMRQHHSKVTRPPPPPTLFLENSLLQRQFANPISYLGGPRLQPRSNRTSIDSILSLDLEHHHHHH | not soluble
MPNRKVVKFFFDVISPYSYFGFEGITRHRSVWKTPIQMKPFFFAGVVRHTENPGLPLRIPIKEKYMHKDLLFSAQYWGIPFRLPKDYTNMMLNTSSIVPQRILVASQLRDNVLMEDVARGLWHRFYAYGKPIFTKSQVAEVLRDLHVKDVDELVMMSDSAEVKNILRENTDEAIGNGCFGAPWMHITDGHGKVLQTVFGSDRLPQVADFLAEPFKGPMREKKPNA | not soluble
MPPKKVSPGITVILIDAGSNMSVKDTETGKSAFENAINAADWIVSRKLFSKDPELFSVMAYNLDPKEYKTEVGGQTFNGVQCQNEKFTPASFDHLKFITKELQQNTEMIDPNFFKGVLGAVAVLKDQIESYPNPSGITLIVLTNGLNENIRQENFDLLVEAVSESNADLMIIGIDENPEYPASRVAELAETLEGRTYTFQNVAKMLSTFQARQKSERKYNKMWDIAPGIHLPVIFALKSEKSTALLKFKNADSEGNEMVRLEQMHVETDEVAPKDEFKSPVLEEKPKFQKNFKPVENIKTMHGSEILNFLKSIINASGYNFGKSVIMMDPEYLKEKYNDHNFNEGQTGGVLKLIQFTKRANILDSYLLDASAKTVLPALNSPKSGATKATVSLIEAMLSLRVAAICRYTFHAKSHVQLIALLPHQDEETGVFYLRSVKLPFSDDMRTLKFPKFSFDEEDEDLNKPTVAQLSAVDDLIDCMQLQEDEISSLVEGGMSDPKLQMQCHFLKSLVLHPNDTFENHSNRTNQILDQIMAPKRRVEAEHPEIFQKLGREFNLQPIQKTKRERVTVEPEDLQTMISEWTEKKQNMTQPDEVDDGASQKKKKKPNAKKLTRKEEVQMDIMEDGGASRVCSKILEMISNTCKFQPNGAVTEFFTLLVNELNVIRSVFVENSKCDEFNELLKKLKDEEDFEPFAEVLSEEKSCNPIDSSEVSMSEVSVANAAEFWEED | not soluble
MPQEIPPAVKYKIYPEGAEGIDTVWERPGFKKGEIEARVKDVVILRGEPVPNSYKMLVEATFELPKKDKITQLGLVNRHGLVTRVHYASPFKGAILPGDIILQVNGTTVSFDEKQLTEHVDETTGGASLQSNVKTVKRKPTTTPKTEPVRAPHSLYPDFKVVVGKILNSKSETKITVLVARLKNRMSTSKIPNGILATQDHTIDLAILYQFKYLQLGLNVQQVDRKVVVNYTIPDSVSHCSLNIGEAIIAVDDKPINTLADNRQRFREGFEANGWIRLLVEYPNTDPIKNMVRGQLANVMRTAERPQYLLCGDVRKYFVEGIEALKNGKALAPILKEEEGPGEVGKKKSDAKVTKKDPAVGFNNTTEEFFIPAEWNSKLFVWLPPLKTKVTESASSNMPVKK | not soluble
MPQIYFSAAERRPKFVMKTGLSATEKNEVIKAAYRQIFERDITRAYSLSISDLESKVKNGDISMKEFVRRLAKSPLYQKQFYQPFINSRVIELAFRHILGRGPSSREEVQKYFSIISNGGLPALVDALVDSAEYSDYFGEETVPYLRGLEHHHHHH | soluble
MPQSLISELHTQYAQFVRKHPHAERDFSDALEDVLTDAGLTYDRVSARIKDWHSLKTKARKKNAQGAFIYPHPWDDVHDIIGVRITTLHSTEIPQIIEALADVFTVERSVDKTALTRISGSFGYGSHHLILKIDDRVKDLNNYVGMVFEVQIRTVLQHAWAEFEHDIRYKRSGDLDPQIDRAFTLAAGLIELADQQFDLIAAIQEPQKHSPNLEVDITAETLPGVIAMLVGSRFPQSRSEHYRWLEELLFAHSITTAAQLKELLNDRDIEAVRKALNYKFKPGQVRIIDDLLLYRYGTKHIEATGETGKNPRLRLPRLNERLRILNKHAPRNRSDLQQS | not soluble
MPRKQRVVTTPSPPTSDEDEDMDFGSTSQQQQQQPTRNNDGLSGFKSITEIIAEADNNIPSEQIDKDIDSFSSYSDISDWRGIPKFFPSLSSLSRRASTYENWENRFKVVDYLVSCSGALKDSVSDYVADYFEKNESGEDHSVDVELVHAVSMFVILTQRLTVQLQLYVSKSIASANQQAKRGTGRGGRQVDLDDDIVKWKDIQRHRMINCLLELLELRVDTVAGTKKKAIQYVFAPDVMEKDFLLRFLDTVVQLLEDPENMARSSQQWISHYFRILKVLSADYGMTKDVANCLFTALSHSYLEAANTFPFIEPLVTLMKENGEGSGRIYQPLRNVLQLVICRVGNLYAGERAEKPPPKAFCMMVQSLAINVHDLMLQDITHVYRLLQNQHVNVRMSTLHALADMFSSSYLSQSLCDTFASRRLKREGIFKRLLAHTNDEATNVRSKAVSLLRNIMENRRIPEEFESCGLLSIVGSRLNDKSVQVRKSAIQFLTTFLDNNRHGHDFNREMHQLKLNAKCSELRNAEEPQSKAIQGAENAFRQNLFTLTAGVRVEVYDIFRRRYRVEPERSITDILTGLFSPGSGNRLVRYYVAQENFPFRDRIPSLRERRSDDMEDDDDDTVSLEDDDMTSLVSEVVKWVVAQAEEDYVTFKVQLTQMDDDQLLENEQEARDRNNQIMQLRAQVQQLINKMSIEQELSRCVTIALRCVLNGETAEIKEGIRFLTRCKLFEITGADDAIRSMCSLVWRPSADILNELIEAAEDMFISRLDGNEKASERDSSTVENLMKAMNGVTEKDRPSVEEVIYLLAATELVHVDSDKNKVPRKRRPIEANVINKLWMIALDMSHGINSRKIDALRILYPISRSERGIAEARSRLRVVQKKLMDPELAVDALRIISILGTPTKLENEQDAYSRPLFKIHQDDSLWKSIEKLFFYEIMKADDNPDRDWFGVIRLTITTILSLSMDVNVMLPKLASHFVYRTKRISDFFLFYCDQVDDATDDTRKKMAQRRREYWALTYCRVMEKLMAFIGEVAVQLNAYIQVTIPKLHTRYVSKMVDAEKNDANIREEPVRFLSDLEKSVAQRKTIFTVPQDTTPGATSNDLHHLVSVMCDKRLFVPNKLMGRLLPIVVYGMRCKIMPTRIRHAATVAYGKMMPLSAEISAFAAPSFFSAMTKSSSILLRCNLVAACCDFAFAQPTLFELFAQSLFRMSQDESPLARESTILVLSHLMSNDMIQTRGVLSEAARCICDPTRAVRDVAQSFFKELNSRTDTIIQLLPEFLYHLSNGNERMSFKSYKTVFEFLIQLLKDKPKASADSMIDRVCIKFSNTDMNDSETPKYLLVALAKFVQNDGGLHRLQDNWRHWSKFMCHPSVAKEYRMMVEHMHSTSKNDEFKSQCVELIDNINKIESEGLRKEDVAIGSSITKNKGRAKKNPTTMSGSSRTTSRAANSRRRAPPPAQSDEDDSDSDDAPAAPRSAARRKAKKSAVADDDSDSDEFMLDD | not soluble
MPRYYEDKPEGGACAGVKEDLGACLLQSACVLQEGKSPRQCLKEGNCRALQYSFFECKRSMLDARSRFRGRKGY | not soluble
MPSADVLIIGSGIAALRVAKEICHEKNVIIITKETNRNNNTHLAQGGIAAAVATYDNPNDHFEDTLVAGCRYNNEDVVRYLVEEGPKEMKNLIENGMQFDGDETGPHLGKEGAHRKRRILHAGGDATGKNLLEHFIQEVVPHVTVVEQEMVLDFIIESEKCVGVLTRNSEGKLKRYDADYTVLASGGVGGLYAFTSNDKTITGDGLAMVYRAGGELVDLEFVQFHPTMLYAGGQCCGLVSEAVRGEGAVLINGKGQRFMMDIHDDYDLAPRDVVARAIHEQLLSGEKVYLNIGSIQNFQERFPTVSALCKKNGVDITKKRIPVVPGAHFHMGGVKTNIDGETSIPNLYAVGEVACNGVHGANRLASNSLLEGLVFGKRIGQHILTKATKDKLNDFAEKEKKFIVLNHLPTKEEIQECMMKYVGIVRTEQSLSYAKRWLSKYGVRNMILQHDALTNEEITLINMLTVCELIVVSALQREESIGGHYRSDYPHRNSAQKEIIRVKRKLQLV | not soluble
MPSPMSTLTTYSEPRGSTTYTLPAMEPSVSRLDTDMNSGLMPRYIFLTPLDSITLLASSGTLLEKPGQDIQRSSPTDSTSHSTRFIGGAPMKVATNVCFGLM | not soluble
MPSYKLSYFPVRGLAESARLLFHLAGVPFEDERVNFLDDTWEKMKGKTPMGQLPVLTVDDFEIPQSAAINRYLARKFGFAGKTPEEEAWVDAVVDQFKDFFAEFRKLVIAKRVGKSAEELEKLTAEVIKPAMDVYFKVLNGLLEKSKSGYLIGDSITFADLYIADNIQTLKKYGLLEASGEQPKLAAHLEKVYSHPNLKSYIASRPVTEI | not soluble
